Assay results published in patent US20160237153A1 (DUKE UNIVERSITY, published 2016).

Tests used:
[1] = molecular target: T1, mouse NaV1.5 expressed in HEK293 cells (mouse, UniProt Q9JJV9 1-2019); experiment: cell-based or functional assay
[2] = molecular target: T2, mouse NaV1.6 expressed in HEK293 cells (mouse, UniProt Q9WTU3 1-1978); experiment: cell-based or functional assay
[3] = molecular target: T3, rat NaV1.8 expressed in HEK293 cells (rat, UniProt Q62968 1-1956); experiment: cell-based or functional assay
T3 sequence (Q62968 whole entry): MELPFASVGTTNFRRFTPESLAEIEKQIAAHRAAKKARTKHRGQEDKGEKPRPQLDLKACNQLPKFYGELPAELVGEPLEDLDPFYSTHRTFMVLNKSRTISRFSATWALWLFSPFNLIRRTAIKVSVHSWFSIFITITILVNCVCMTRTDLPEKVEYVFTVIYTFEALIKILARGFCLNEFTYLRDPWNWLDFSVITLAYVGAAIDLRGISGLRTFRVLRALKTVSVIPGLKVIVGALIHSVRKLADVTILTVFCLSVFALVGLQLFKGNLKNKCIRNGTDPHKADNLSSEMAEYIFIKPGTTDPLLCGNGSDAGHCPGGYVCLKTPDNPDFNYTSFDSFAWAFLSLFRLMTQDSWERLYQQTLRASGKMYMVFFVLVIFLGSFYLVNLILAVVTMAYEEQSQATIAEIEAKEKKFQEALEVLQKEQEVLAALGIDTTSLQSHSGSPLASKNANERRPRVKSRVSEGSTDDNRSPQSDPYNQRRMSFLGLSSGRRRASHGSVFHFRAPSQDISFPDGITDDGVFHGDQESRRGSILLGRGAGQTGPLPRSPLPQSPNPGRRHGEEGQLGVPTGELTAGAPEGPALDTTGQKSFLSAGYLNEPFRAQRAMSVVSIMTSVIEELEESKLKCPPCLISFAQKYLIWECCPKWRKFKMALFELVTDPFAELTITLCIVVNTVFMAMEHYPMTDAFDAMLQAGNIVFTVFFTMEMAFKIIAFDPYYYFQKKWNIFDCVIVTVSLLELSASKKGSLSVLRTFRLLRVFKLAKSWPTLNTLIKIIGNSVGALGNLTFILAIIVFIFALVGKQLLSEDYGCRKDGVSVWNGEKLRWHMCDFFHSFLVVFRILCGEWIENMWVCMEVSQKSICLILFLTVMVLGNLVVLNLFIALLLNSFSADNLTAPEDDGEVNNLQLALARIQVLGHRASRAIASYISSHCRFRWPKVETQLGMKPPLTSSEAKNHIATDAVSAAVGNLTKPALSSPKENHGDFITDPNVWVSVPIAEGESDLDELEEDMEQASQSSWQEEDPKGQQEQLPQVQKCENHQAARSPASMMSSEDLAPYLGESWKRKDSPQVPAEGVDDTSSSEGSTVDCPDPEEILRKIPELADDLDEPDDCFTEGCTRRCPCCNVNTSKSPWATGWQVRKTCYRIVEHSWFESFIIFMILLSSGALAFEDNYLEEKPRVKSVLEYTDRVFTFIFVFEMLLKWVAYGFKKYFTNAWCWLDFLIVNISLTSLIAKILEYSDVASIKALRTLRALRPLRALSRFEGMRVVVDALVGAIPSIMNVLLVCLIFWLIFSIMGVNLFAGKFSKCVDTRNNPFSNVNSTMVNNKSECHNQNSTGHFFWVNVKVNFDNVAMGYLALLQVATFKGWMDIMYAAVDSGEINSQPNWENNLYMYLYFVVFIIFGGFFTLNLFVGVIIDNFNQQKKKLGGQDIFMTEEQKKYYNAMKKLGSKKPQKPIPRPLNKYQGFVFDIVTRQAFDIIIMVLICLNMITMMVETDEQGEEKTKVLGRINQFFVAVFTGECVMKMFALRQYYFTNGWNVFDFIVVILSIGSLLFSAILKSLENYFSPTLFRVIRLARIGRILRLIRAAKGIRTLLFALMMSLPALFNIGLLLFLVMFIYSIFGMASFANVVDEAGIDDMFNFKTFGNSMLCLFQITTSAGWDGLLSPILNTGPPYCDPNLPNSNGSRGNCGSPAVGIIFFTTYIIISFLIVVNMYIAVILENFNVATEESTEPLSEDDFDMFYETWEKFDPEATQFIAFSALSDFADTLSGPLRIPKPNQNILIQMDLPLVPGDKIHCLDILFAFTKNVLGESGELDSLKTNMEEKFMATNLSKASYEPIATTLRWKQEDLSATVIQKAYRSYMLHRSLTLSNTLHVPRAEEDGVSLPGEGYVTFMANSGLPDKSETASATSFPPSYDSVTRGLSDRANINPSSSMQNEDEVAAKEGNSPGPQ

[4] = molecular target: T4, human NaV1.7 expressed in HEK293 cells (human, UniProt Q15858 1-1988); experiment: cell-based or functional assay
[5] = molecular target: T5, human NaV1.1 expressed in HEK293 cells (human, UniProt P35498 1-2009); experiment: cell-based or functional assay
[6] = molecular target: T6, rat NaV1.2 expressed in HEK293 cells (rat, UniProt P04775 1-2005); experiment: cell-based or functional assay
[7] = molecular target: T7, human NaV1.3 expressed in HEK293 cells (human, UniProt Q9NY46 1-2000); experiment: cell-based or functional assay
[8] = molecular target: T8, human NaV1.4 expressed in HEK293 cells (human, UniProt P35499 1-1836); experiment: cell-based or functional assay
[9] = molecular target: T1, mouse NaV1.5 expressed in HEK293 cells; experiment: cell-based or functional assay; remark: listed apart in the source
[10] = molecular target: T2, mouse NaV1.6 expressed in HEK293 cells; experiment: cell-based or functional assay; remark: listed apart in the source
[11] = molecular target: T3, rat NaV1.8 expressed in HEK293 cells; experiment: cell-based or functional assay; remark: listed apart in the source
[12] = molecular target: T4, human NaV1.7 expressed in HEK293 cells; experiment: cell-based or functional assay; remark: listed apart in the source
[13] = molecular target: T5, human NaV1.1 expressed in HEK293 cells; experiment: cell-based or functional assay; remark: listed apart in the source
[14] = molecular target: T6, rat NaV1.2 expressed in HEK293 cells; experiment: cell-based or functional assay; remark: listed apart in the source
[15] = molecular target: T7, human NaV1.3 expressed in HEK293 cells; experiment: cell-based or functional assay; remark: listed apart in the source
[16] = molecular target: T8, human NaV1.4 expressed in HEK293 cells; experiment: cell-based or functional assay; remark: listed apart in the source
[17] = molecular target: T4, human NaV1.7 expressed in HEK293 cells; experiment: fraction bound = 1 - I/I0 from whole-cell voltage clamp of hNaV1.7 in HEK293 cells, 30 ms pulses to -10 mV from -120 mV at 10 Hz; mean±S.E.M., n=10
[18] = molecular target: T4, human NaV1.7 expressed in HEK293 cells; experiment: apparent KD from whole-cell voltage clamp of hNaV1.7 in HEK293 cells at 10 Hz; fraction bound Y=1-I/I0 fitted to a one-site binding equation; apparent KD from inhibition of peak sodium current (Y=1-I/IO), one-site fit, n=10

T1 sequence (Q9JJV9 whole entry): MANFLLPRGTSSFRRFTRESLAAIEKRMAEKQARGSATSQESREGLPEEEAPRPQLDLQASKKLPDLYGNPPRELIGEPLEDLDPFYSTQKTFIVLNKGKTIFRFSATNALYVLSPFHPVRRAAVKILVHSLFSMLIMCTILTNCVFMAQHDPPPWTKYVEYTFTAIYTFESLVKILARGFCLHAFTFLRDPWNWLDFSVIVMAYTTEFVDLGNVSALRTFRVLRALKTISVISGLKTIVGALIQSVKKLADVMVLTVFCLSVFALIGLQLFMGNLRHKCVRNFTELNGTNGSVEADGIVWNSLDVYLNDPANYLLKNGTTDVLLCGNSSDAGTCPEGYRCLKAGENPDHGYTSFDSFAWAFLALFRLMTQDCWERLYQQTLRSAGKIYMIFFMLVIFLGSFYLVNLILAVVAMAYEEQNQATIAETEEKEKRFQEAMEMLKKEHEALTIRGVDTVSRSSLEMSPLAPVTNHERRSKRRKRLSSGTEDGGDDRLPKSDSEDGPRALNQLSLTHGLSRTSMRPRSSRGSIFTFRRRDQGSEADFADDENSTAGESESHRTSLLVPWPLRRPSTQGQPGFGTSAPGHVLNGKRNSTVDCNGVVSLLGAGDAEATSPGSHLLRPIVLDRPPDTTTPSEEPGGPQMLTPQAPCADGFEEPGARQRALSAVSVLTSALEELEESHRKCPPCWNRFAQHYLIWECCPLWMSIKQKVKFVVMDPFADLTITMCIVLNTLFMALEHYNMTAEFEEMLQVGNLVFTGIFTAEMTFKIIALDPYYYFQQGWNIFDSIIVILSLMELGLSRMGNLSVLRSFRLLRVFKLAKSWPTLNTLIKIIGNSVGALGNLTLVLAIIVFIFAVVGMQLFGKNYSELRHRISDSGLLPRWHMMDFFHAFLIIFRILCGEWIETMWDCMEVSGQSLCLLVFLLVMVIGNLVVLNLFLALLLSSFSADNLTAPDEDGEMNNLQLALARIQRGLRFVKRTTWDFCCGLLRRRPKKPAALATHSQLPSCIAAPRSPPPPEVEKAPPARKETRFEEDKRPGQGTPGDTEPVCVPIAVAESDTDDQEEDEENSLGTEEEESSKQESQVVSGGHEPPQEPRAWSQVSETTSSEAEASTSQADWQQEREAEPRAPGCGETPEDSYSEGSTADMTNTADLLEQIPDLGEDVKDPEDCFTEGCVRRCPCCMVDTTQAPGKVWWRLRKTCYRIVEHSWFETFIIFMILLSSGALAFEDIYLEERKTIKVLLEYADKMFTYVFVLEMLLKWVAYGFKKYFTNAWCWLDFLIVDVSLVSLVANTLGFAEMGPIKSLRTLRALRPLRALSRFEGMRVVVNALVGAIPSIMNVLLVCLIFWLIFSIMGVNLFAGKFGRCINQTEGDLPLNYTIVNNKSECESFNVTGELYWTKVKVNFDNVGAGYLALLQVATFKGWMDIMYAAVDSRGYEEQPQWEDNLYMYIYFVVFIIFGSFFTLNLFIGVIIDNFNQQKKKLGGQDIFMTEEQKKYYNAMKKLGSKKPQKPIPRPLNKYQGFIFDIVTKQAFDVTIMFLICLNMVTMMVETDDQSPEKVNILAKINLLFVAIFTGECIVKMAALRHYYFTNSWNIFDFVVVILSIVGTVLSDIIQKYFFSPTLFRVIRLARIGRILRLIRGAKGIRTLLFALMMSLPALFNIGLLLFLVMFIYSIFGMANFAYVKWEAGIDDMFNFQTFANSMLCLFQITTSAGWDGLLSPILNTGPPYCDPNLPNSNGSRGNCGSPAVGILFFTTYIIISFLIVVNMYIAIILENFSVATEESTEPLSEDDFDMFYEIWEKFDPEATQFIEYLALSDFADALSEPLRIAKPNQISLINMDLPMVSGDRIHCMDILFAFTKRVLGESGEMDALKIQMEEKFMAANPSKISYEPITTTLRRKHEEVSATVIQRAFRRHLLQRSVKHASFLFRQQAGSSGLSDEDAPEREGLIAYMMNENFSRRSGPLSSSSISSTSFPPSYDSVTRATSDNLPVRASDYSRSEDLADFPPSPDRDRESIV

B1: 1E16 monoclonal antibody (antibody, IgG1, V domains shown)
VH: QGQMQQSGAELVKPGASVKLSCKTSGFTFSSSYISWLKQKPGQSLEWIAWIYAGTGGTSYNQKFTGKAQLTVDTSSSTAYMQFSSLTTEDSAIYYCARQDGNYRYWYFDVWGAGTTVTVSS
VL: ETTVTQSPASLSMAIGEKVTIRCITSTDIDDDMNWYQQKPGEPPKLLISEGNTLRPGVPSRFSSSGYGTDFVFTIENMLSEDVADYYCLQSDNLPLTFGGGTKLEIK
notes: also called 1E16 mAb; 1E16 Ab
IC50, sodium current at 2 Hz [1]: > 5 µM | fold decrease in efficacy relative to NaV1.7 [2]: ~2 fold | fold decrease in potency relative to NaV1.7 [2]: ~200 fold | IC50, sodium current at 2 Hz [3]: > 5 µM | IC50 of inhibition of human NaV1.7 currents at 0.1 Hz [4]: 0.107 µM | IC50 of inhibition of human NaV1.7 currents at 10 Hz [4]: 0.0167 µM | IC50, sodium current at 2 Hz [5]: > 5 µM | IC50, sodium current at 2 Hz [6]: > 5 µM | IC50, sodium current at 2 Hz [7]: > 5 µM | IC50, sodium current at 2 Hz [8]: > 5 µM | IC50 (µM), sodium current at 2 Hz [9]: 5.6 µM | Maximum inhibition (%) [9]: 19.1% | Selectivity for Nav1.7 [9]: 830 fold | IC50 (µM), sodium current at 2 Hz [10]: 6.3 µM | Maximum inhibition (%) [10]: 44.2% | Selectivity for Nav1.7 [10]: 404 fold | IC50 (µM), sodium current at 2 Hz [11]: 5.2 µM | Maximum inhibition (%) [11]: 22.1% | Selectivity for Nav1.7 [11]: 666 fold | IC50 (µM), sodium current at 2 Hz [12]: 0.0307 µM | Maximum inhibition (%) [12]: 86.9% | Selectivity for Nav1.7 [12]: 1 fold | IC50 (µM), sodium current at 2 Hz [13]: 6.3 µM | Maximum inhibition (%) [13]: 20.7% | Selectivity for Nav1.7 [13]: 862 fold | IC50 (µM), sodium current at 2 Hz [14]: 9 µM | Maximum inhibition (%) [14]: 18.7% | Selectivity for Nav1.7 [14]: 1360 fold | IC50 (µM), sodium current at 2 Hz [15]: 8.7 µM | Maximum inhibition (%) [15]: 16.2% | Selectivity for Nav1.7 [15]: 1520 fold | IC50 (µM), sodium current at 2 Hz [16]: 7.9 µM | Maximum inhibition (%) [16]: 21.5% | Selectivity for Nav1.7 [16]: 1040 fold | EC50 (read off the curve) [17]: ~0.02 µM | Kd [18]: 0.0229 µM
